Data reported in the nanobody polyreactivity screen of Harvey et al. (2022).

Test: yeast display, Sf9 membrane polyspecificity reagent, FACS + sequencing; frameworks hold sequencing errors
Procedure, shortened: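 Genes from sorted yeast were amplified by colony PCR, read by MiSeq 2 × 250 sequencing and filtered on CDR length. These cells carried a synthetic nanobody library in Saccharomyces cerevisiae BJ5465 and were sorted by FACS into low and high (top ~1%) gates on anti-HA and streptavidin fluorescence. Polyreactivity is labelled according to the gate of origin.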

Sequence | polyreactivity (PSR sort gate)
QVQLVESGGGLVQAGGSLRLSCAASGRIFASYAMGWYRQAPGKERELVAAISKSGGRTYYADSVKGRFTISRDNAKNTVYLQMNSLKPEDTAVYYCAADGYRYYSWTRFSYYSGYDYWGQGTQVTVSS | high polyreactivity
QVQLVESGGGLVQAGGSLRLSCAASGRTFDDYAMGGYSQAPGKERELVAAISWSGSSTYYADSVKGRFTISRDNAKNTVYLQMNSLKPEDTAVYYCAADSIRTLLTGNTVYIWYGYWGQGNQVTVSS | low polyreactivity
QVQLVESGGGLVQAGGSLRLSCAASGGTSAVYAMGWYRQAPGKERELVAAISSDGSTNYADSVKGRFTISRDNAKNTVYLQMNSLKPEDTAVYYCAVDFSTYEWSGHITRASGSYDYWGQGTQVTVSS | low polyreactivity
QVQLVESGGGLVQAGGSLRLSCAASGIIFPGYAMGWYRQAPGKERELVAAISSSGSSTYYADSVKGRFTISRDNGKNTVYLQMNSLKPEDTAVYYCAAVRYGLRRMDYWGQGTQVTVSS | high polyreactivity
QVQLVESGGGLVQAGGSLRLSCAASGRTFGSYAMGWYRQAPGKERELVAAISKGGGSTYYADSVKGRFTISRDNAKNTVYLQMNSLKPEDTAVYYCAKRRFDYYYYGGQGTQVTVSS | high polyreactivity
QVQLVESGGGLVQAGGSLRLSCAASGIIFPSYDMGWYRQAPGKERELVAGITDGGDTTYADSVKWRFTISRDNAKNTVYLQMNSLKPEDTAVYYCAADIGYGYWHFDYWGQGTQVTVSW | low polyreactivity
QVHLVESGGGLVQAGGSLRLSCAASGRTFYSYTMAWYRQAPGKERELVAAINRGGSTYYADSVKGRFTISRDKAKNTVYLQMNSLKEEDTAVYYFAVGYAHSSNRRYYYQKTHGYWGQGTQVTVSS | low polyreactivity
QVQLVESGGGLVQAGGSLRLSCAASGFIFRRYTMGWYRQAPGKERELVAAISWTGGSTYYADSVKGRFTISRDNAKNTVYLQINRLKPEDTAVYYCNAVLYTPVYDGFDSWGQGTQVTVSS | high polyreactivity
QVQLVDTGGGLVQAGGSLRLSCAASGLTFQQYAMGWYRQAPRKERELVAAITSDGASTNYADSVKGRFTNSRDNAKNTVYLQMNSLKPEDCAVYYCAAGRRSRQYRYVYWGQGTQVTVSS | high polyreactivity
QVQLVESGGGLVQAGGSLRLSCAASGSIFTKYAMGWYRQAPGKERELVAAISSSGGSTYYADSVKGRFTISRDNAKNTVYLQMNSLKPEDTAVYYCAAEAVYYRSWRYYYWGQGTQVTVSS | high polyreactivity
QVQLVESGGGLVQAGGSLRLSCAASGSTYYYNAMGSYRQAPGKDRELVARISRSGGSTYADSVKGRFTISRDNAKNTVYLQMNSLKPEDTAVYYCNADAYGTPEFTSYAVRYDYWGQGTQVTVSS | low polyreactivity
QVHLVESGGGLVQAGGSLRLSCAASGFTFLDNAMGWYRQAPGKERELVAAISGIGGSTSYADSVKGRFTISRDNAKNTVYLQMNSLKPEDTAVYYCATRWKTVGRDTIFAYDYWGQGTQVTVSS | low polyreactivity
QVQLVESGGGLVQAGGSLRIRCAASGRIFPYYAMGWYRQAPGKERDLVATITSGGSTYYADTVKGRFTISRDNSKNTVYLQMKSLKPEDTAVYYCAARYPSIYYYRYDFWGQGTQVTVSS | high polyreactivity
QVQLVESGGGLVQAGGSLRLSCASSGSTFVYNVMGRYRQAPGKERDLVAAISRSGGSTYYADSVKGRFTISRDNAKNSVYLQMNSLKPEDTAVYYCAKRVYGWWYDHWGQGTQVTVSS | high polyreactivity
QVQLVESGGGLVQAGGSLRLSCAASGGIFHSNAMGWYRQAPGKERELVAAISYSGGSTYYADSVKGRFTISRDNAKNTVYLQMNSLKPEDTAVYYCAKRYYGSPQLRYYYWGQGTQVTVSS | high polyreactivity
QVQLVESGGGLVQAGGSLRLSCASSGFTFPFYAMGWYRQAPGKESELVAAISWSGGSTYYADSVKGRFTISRDNAKNTVYLQMNSLKPEDTAVYYCAAEYISSPLGYDYWGQGTQVTVSS | high polyreactivity
QVQLVESGGGLVQAGGSLRLSCAASGSIFGWYVMGWYRQAPGKERELVAAISSVGSTYYADSVKGRFTISRDNAKNTVYLQMNSLKPEDTAVYYCAKLRYPYLFWDDSEYWGQGTQVTVSS | low polyreactivity
QVQLVESWGGLVQAGGSLRLSCAASGTTFTVYAMGWYRQAPGKERELVAAISWSTGRTYYADSVKGRFTISRDHAKNTVYLQMNSLKPEDTAVYYCAARVSYYRTPAEYGYWGQGTQVTVSS | high polyreactivity
QVQLVESGRGLVQAGGSLRLSCAASGITFEYYAMGWYRQAPGKERELVAAIDTGGSTNYADSVKGRFTISRDNAKNTVYLQMNSLKPEDTAVYYCAADWSWWDGEDYHFEYDYWGQGTQVTVSS | low polyreactivity
QVQLVESGAGLVQAGGSLRSSCAASGSTFSGNAMGLYRQAPGKERELVAAISGRGGSTYYADSVKGRFTISRDNAKNSVYLQMNSLKPEDTAVYYCAKRRNTRGAYGYWGQGTQVTVSS | high polyreactivity
QVQLVESGGGLVQAGGSLRLSCAATGLTFWVNAMAWYRQAPGKERELVADITRSGGITNYADSVKGRFTISRDNANNTVYLQMNSLKPEDNAVYYCNADQRVDHDDFDYWGKGTQVTVSS | low polyreactivity
QVQHVESGGGLVQAGGSLRLTCAASGRIIAGYAMGWYRQATGKEREMVAAISSRGGSTYYADSVKGRFSISRDNAKNTVDLQMNSLKPVDTAVYYCAKRSWYSYVYGSGDYWGQGTQVTVSS | high polyreactivity
